# Experimental data: patent US20210261937
# Experiments:
# [1] = target: bdSUMO D67K-MBP fusion protein
# [2] = target: bdSUMO Mut10-MBP fusion protein
# [3] = target: bdSUMO Mut11-MBP fusion protein
# [4] = target: bdSUMO Mut12-MBP fusion protein
# [5] = target: bdSUMO Mut13-MBP fusion protein
# [6] = target: bdSUMO Mut14-MBP fusion protein
# [7] = target: bdSUMO Mut15-MBP fusion protein
# [8] = target: bdSUMO Mut8-MBP fusion protein
# [9] = target: bdSUMO-MBP fusion protein
# [10] = target: bdSUMO^Mut1-MBP fusion protein
# [11] = target: hsSUMO2-MBP fusion protein
# [12] = target: scSUMO-MBP fusion protein
# [13] = target: hsSUMO2-MBP fusion protein with the bdSUMO^Mut1 exchanges
# [14] = target: hsSUMO2-MBP fusion protein with the bdSUMO^Mut11 exchanges
# [15] = target: scSUMO-MBP fusion protein with the bdSUMO^Mut1 exchanges
# [16] = target: scSUMO-MBP fusion protein with the bdSUMO^Mut11 exchanges
Protein,"cleavage of 100 µM fusion, 1 h at 0 °C (FIG. 7) (SUMOstar-MBP fusion)",cleavage of the SUMO fusion protein [1],cleavage of the SUMO fusion protein [2],cleavage of the SUMO fusion protein [3],cleavage of the SUMO fusion protein [4],cleavage of the SUMO fusion protein [5],cleavage of the SUMO fusion protein [6],cleavage of the SUMO fusion protein [7],cleavage of the SUMO fusion protein [8],cleavage of the SUMO fusion protein [9] [% cleavage],cleavage of the SUMO fusion protein [10],cleavage of the SUMO fusion protein [11],cleavage of the SUMO fusion protein [12],other results
bdSENP1^MutB protease (protein) PFVPLTDEDEDNVRHALGGRKRSETLSVHEASSIVITREILQCLNDKEWLNDEVINLYLELLKERELREPNKFLKCHFFNTFFYKKLINGGYDYKSVREWTTKRKLGYNLIDCDKIFVPIHKDVHWCLAVINIKEKKFQYLDSLGYMDMKALRILAKYLVDEVKDKSGKQIDVHAWKQEGVQNLPLQENGWDCGMFMLKYIDFYSRDMELVFGQKHMSYFRRRTAKEILDLKAG,the SUMOstar-MBP fusion remained intact even at the highest protease concentration of 10 µM,< 75 % cleavage,100 % cleavage,100 % cleavage,100 % cleavage,100 % cleavage,100 % cleavage,100 % cleavage,< 50 % cleavage,< 25,100 % cleavage,resistant,resistant,"molar excess of substrate cleaved within one hour at 0 °C [10]: able to cleave a 500-fold molar excess of substrate within one hour at 0 °C; protease concentration that cleaves the cognate substrate, 1 h at 0 °C (FIG. 7) [10]: bdSENP1^MutB protease only cleaved its cognate substrate at a concentration of 200 nM; protease concentration that cleaves ≈95% of 100 µM substrate, 1 h at 0 °C [10]: only 200 nM of bdSENP1^MutB protease were enough to cleave ≈95% of the cognate substrate (bdSUMOmut 1); proteolytic efficiency against TEV protease [10]: around 1000-fold more efficient than the site-specific protease from the tobacco etch virus (TEV protease); proteolytic efficiency against bdSENP1 or Ulp1 on their cognate substrates [10]: only 5-fold less efficient as compared bdSENP1 or Ulp1; cleavage of SUMO-MBP fusion (FIG. 14) [11]: wild type scSUMO and human SUMO-2 (hsSUMO2) fusion proteins remain intact even in the presence of extremely high concentration of bdSENP1^MutB; cleavage of SUMO-MBP fusion (FIG. 14) [12]: wild type scSUMO and human SUMO-2 (hsSUMO2) fusion proteins remain intact even in the presence of extremely high concentration of bdSENP1^MutB"
SUMOstar protease (protein) LVPELNEKDDDQVQKALASRENTQLMNRDNIEITVRDFKTLAPRRWLNSGIISFFMKYIEKSTPNTVAFNSFFYTNLSERGYQGVRRWMKRKKTQIDKLDKIFTPINLNQSHWALGIIDLKKKTIGYVDSLSNGPNAMSFAILTDLQKYVMEESKHTIGEDFDLIHLDCPQQPNGYDCGIYVCMNTLYGSADAPLDFDYKDAIRMRRFIAHLILTDALK,SUMOstar protease only recognized SUMOstar-MBP,resistant,resistant,resistant,resistant,resistant,resistant,resistant,resistant,100,resistant,< 25 % cleavage,100 % cleavage,"cleavage of bdSUMO-MBP variants by 10 µM SUMOstar protease, 2 h at 25 °C (FIG. 5) [1]: the D67K mutation alone was necessary and sufficient for blocking cleavage; cleavage of 100 µM fusion, 1 h at 0 °C (FIG. 7) [10]: left intact the bdSUMO^Mut1-MBP fusion protein even at the highest SUMOstar protease concentration of 10 µM; cleavage of SUMO-MBP fusion, 1 h at 25 °C (FIG. 14) [13]: allowed cleavage resistance against Ulp1, SUMOstar protease, hsSENP2 and bdSENP1; cleavage of SUMO-MBP fusion, 1 h at 25 °C (FIG. 14) [14]: allowed cleavage resistance against Ulp1, SUMOstar protease, hsSENP2 and bdSENP1; cleavage of SUMO-MBP fusion, 1 h at 25 °C (FIG. 14) [15]: allowed cleavage resistance against Ulp1, SUMOstar protease, hsSENP2 and bdSENP1; cleavage of SUMO-MBP fusion, 1 h at 25 °C (FIG. 14) [16]: allowed cleavage resistance against Ulp1, SUMOstar protease, hsSENP2 and bdSENP1"
